Positions count from the first letter of the chain named. Numbers in names are those of the source.
B1: FasL (protein, UniProt P48023 130-281, looked up)
Tumor necrosis factor ligand …: QIGHPSPPPEKKELRKVAHLTGKSNSRSMPLEWEDTYGIVLLSGVKYKKGGLVINETGLYFVYSKVYFRGQSCNNLPLSHKVYMRNSKYPQDLVMMEGKMMSYCTTGQMWARSSYLGAVFNLTSADHLYVNVSELSLVNFEESQTFFGLYKL
notes: wild-type FasL ligand used as comparator
B2: conjugate: mutated FasL (P206R) conjugated to mouse monoclonal anti-CD20 antibody with SMCC (conjugate, UniProt P48023 130-281, looked up, variant P206R)
Tumor necrosis factor ligand …: B1 Tumor necrosis factor ligand … with P77R
modifications: conjugated via SMCC to mouse anti-CD20 antibody
B3: FasL (P206R) (protein, UniProt P48023 130-281, looked up, variant P206R)
Tumor necrosis factor ligand …: B1 Tumor necrosis factor ligand … with P77R

system: Burkitt lymphoma cells; assay: Dose response of FasL ligands on Burkitt lymphoma cells; type: cell-based; conditions: dose response over 1 μM to 1 nM, 96 well plate
Experimental: Dose response over a range of 1 μM to 1 nM is determined for each of the ligands.

Molecule | rank order of effectiveness
B1 | rank order of effectiveness is wild-type, conjugate and mutated FasL
B2 | rank order of effectiveness is wild-type, conjugate and mutated FasL
B3 | rank order of effectiveness is wild-type, conjugate and mutated FasL
